Measurements reported in paper PMC4324353 (2014).

Target: actin (Oryctolagus cuniculus, UniProt P68135)

B1: Spire Sc3d WH2 c-Linker 3-WH2 d (second actin at Sc) (protein)
chain: KKDAHAMILEFIRSRPPLKKASDRQLGPPRMCEPSPREQLMESIRKGKELKQITPPEA
**Q.** Which Kd does the source give for B1 here?
**A.** 10 nM

B2: Spire Sc3d WH2 c-Linker 3-WH2 d (second actin at Sd) (protein)
chain: KKDAHAMILEFIRSRPPLKKASDRQLGPPRMCEPSPREQLMESIRKGKELKQITPPEA
**Q.** For B2, which Kd is on record?
**A.** 30 nM
